Assay results published in publication doi:10.1101/2025.10.08.681078 (bioRxiv, 2025).

Tests used:
[1] = biological target: human MLC1 fused to C-terminal GFP (Homo sapiens (Human)., UniProt Q15049); assay: western blot
[2] = biological target: mouse MLC1 fused to C-terminal GFP (Mus musculus (Mouse)., UniProt Q8VHK5); assay: western blot
[3] = biological target: chicken MLC1 fused to C-terminal GFP (Gallus gallus, UniProt A0A1D5PIT5); assay: western blot
Flag-tagged human MLC1 = Flag-tagged human MLC1 (human, UniProt Q15049); assay: western blot
Sequence of Flag-tagged human MLC1 (Q15049 whole entry): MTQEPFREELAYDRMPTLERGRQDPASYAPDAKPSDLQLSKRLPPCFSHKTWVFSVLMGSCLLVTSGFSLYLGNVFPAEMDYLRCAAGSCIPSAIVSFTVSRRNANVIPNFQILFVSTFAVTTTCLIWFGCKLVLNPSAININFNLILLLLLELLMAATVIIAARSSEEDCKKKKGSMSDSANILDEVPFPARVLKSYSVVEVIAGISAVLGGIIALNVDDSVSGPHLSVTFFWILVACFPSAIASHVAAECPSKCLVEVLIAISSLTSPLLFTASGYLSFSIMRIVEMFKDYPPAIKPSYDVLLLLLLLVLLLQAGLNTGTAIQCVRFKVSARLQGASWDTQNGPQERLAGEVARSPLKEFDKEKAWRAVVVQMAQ

Flag-tagged mouse MLC1 = Flag-tagged mouse MLC1 (mouse, UniProt Q8VHK5); assay: western blot
Sequence of Flag-tagged mouse MLC1 (Q8VHK5 whole entry): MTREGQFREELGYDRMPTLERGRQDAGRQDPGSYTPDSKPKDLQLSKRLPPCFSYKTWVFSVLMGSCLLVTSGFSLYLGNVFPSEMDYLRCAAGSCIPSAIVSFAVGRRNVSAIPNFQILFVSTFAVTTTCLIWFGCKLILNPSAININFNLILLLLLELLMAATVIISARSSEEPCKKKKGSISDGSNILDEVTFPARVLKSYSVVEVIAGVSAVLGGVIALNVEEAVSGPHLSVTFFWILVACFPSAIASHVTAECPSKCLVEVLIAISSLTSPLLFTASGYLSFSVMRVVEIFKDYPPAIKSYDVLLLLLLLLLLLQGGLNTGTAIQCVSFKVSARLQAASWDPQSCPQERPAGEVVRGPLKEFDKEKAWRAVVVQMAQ

endogenous human MLC1 = endogenous human MLC1 (Homo sapiens (Human)., UniProt Q15049); assay: immunostaining of cells or tissue
Sequence of endogenous human MLC1 (Q15049 whole entry): as the sequence (Q15049 whole entry) above
Flag::hMLC1::GFP = Flag::hMLC1::GFP (Homo sapiens (Human)., UniProt Q15049); assay: immunostaining of cells or tissue
Sequence of Flag::hMLC1::GFP (Q15049 whole entry): as above

endogenous mouse MLC1 = endogenous mouse MLC1 (Mus musculus (Mouse)., UniProt Q8VHK5); assay: co-IP
Sequence of endogenous mouse MLC1 (Q8VHK5 whole entry): as the sequence (Q8VHK5 whole entry) above

[4] = biological target: T1, MLC1-derived peptide (antigen peptide of the cryo-EM complex) (Mus musculus); assay: cryo-EM structure
T1 chain: YDRMPTLERGRQDA

Measured: binding result

Sequence of mouse MLC1 fused to C-terminal GFP (Q8VHK5 whole entry, the tested form may be a part): as the sequence (Q8VHK5 whole entry) above
Sequence of human MLC1 fused to C-terminal GFP (Q15049 whole entry, the tested form may be a part): as the sequence (Q15049 whole entry) above

B1: monoclonal antibody 37E5 (anti-MLC1), whole IgG (antibody, V domains shown)
VH: QIQLVQSGPDLKKPGETVKISCKASGYTFTNYGMSWVKQAPGKVLKWMGWINTYTGEPTYADDFKGRFAFSLETSANTAYLQINNLKNEDTATYFCAREGATSGFPYWGQGTLVTVSA
VL: DIVMSQSPSSLAVSAGEKVTMSCRSSQSLLNSRTRKNYLAWYQQKPGQSPKLLIYWASTRESGVPDRFTGSGSGTDFTLTISSVQAEDLAVYYCKQSYDLPYTFGGGTKLEIK
not listed: [4]
binds: all other assays above

B2: 37E5 Fab fragment (Fab, V domains shown)
VH: QIQLVQSGPDLKKPGETVKISCKASGYTFTNYGMSWVKQAPGKVLKWMGWINTYTGEPTYADDFKGRFAFSLETSANTAYLQINNLKNEDTATYFCAREGATSGFPYWGQGTLVTVSA
VL: DIVMSQSPSSLAVSAGEKVTMSCRSSQSLLNSRTRKNYLAWYQQKPGQSPKLLIYWASTRESGVPDRFTGSGSGTDFTLTISSVQAEDLAVYYCKQSYDLPYTFGGGTKLEIK
binds: [4]
